Amyloid nucleation score data for 140 substances are collected here from the supplement of paper PMC12042874.

± gives the uncertainty stated by the source.

The nature of the data set: amyloid nucleation score (Sup35N fusion, yeast selection) (log enrichment); library NNK2; higher = more nucleation; inactive = no reads after selection. In short, it runs like this:
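The nucleation score equals the log enrichment of output over input reads from DiMSum, centred on the mode score of non-aggregating sequences. It was computed only for sequences with 100 or more input reads. The reads came from Illumina sequencing of plasmid inserts from psi-negative yeast expressing Sup35N fused to peptides of 20 random codons, induced with 100 μM copper sulfate for 24 hours and grown 7 days at 30°C without adenine and uracil.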
On to PSVVVSNTYIGSPGYKRIWF, for which the amyloid nucleation score was 7.844 ± 0.071.
Turning to DHMRHGCGYHLWFSGLSWRF, the amyloid nucleation score result is “inactive”.
Take VHLALTRCM: the amyloid nucleation score was found to be 0.844 ± 0.32.
As for NGCYQGYKCVLRQLAFKSSG, the figure is -0.17 ± 0.5; as for SNQMWLMVCRVE, 0.112 ± 0.19.
As for FFIIMRYRLRDFTFVYSSPV, the figure is -0.627 ± 0.31; as for LGSGVILLVY, -0.643 ± 1; as for ALDWPLICA, -0.07 ± 0.39.
As to RKLLYCCEVATWCRGETSER, the amyloid nucleation score came to 4.33 ± 0.089.
As for GIYFIYLSM, the figure is 5.918 ± 0.059.
As for VLGLSR, the figure is 0.584 ± 0.51.
As to SFYSDYNQLIISMGHWSSMN, the amyloid nucleation score was determined as 4.35 ± 0.11.
Next, GSLTKSLSKTTQLR: “inactive”; FWLAWLAVRTNHFLAKITD: -0.267 ± 0.28.
Regarding GMLKTLSMMHTLIWYFLWDT, the amyloid nucleation score was -0.62 ± 0.79.
Consider ESYRPPVKTFGLGIRMGLFV, for which the amyloid nucleation score was -0.975 ± 1.1.
MSGYVVFDMALKTRELMPAS displayed an amyloid nucleation score of 1.87 ± 0.48.
On to VRARYASLCHGIAAEGIVGV, for which the amyloid nucleation score was 0.506 ± 0.28.
In the case of CLLGMYIVTDTARMTVCVGL, the amyloid nucleation score was determined as 0.444 ± 0.49.
Next, IISFLLFGEGGFFLVLY: “inactive”; TSSSYTWLIKSMRVFTNYNV: -1.32 ± 0.38; SELHGCYFHVHRRHRYRGYY: -0.015 ± 0.61.
For the substance RRYDAVR, the amyloid nucleation score was 1.3 ± 0.22.
For DLYVLSWLYLGGEPNCVRF, the amyloid nucleation score turned out to be 0.446 ± 0.26.
Next, GYAWPRGTSGVA: 0.353 ± 0.4; FFGGYYYKLSQKLLRIAHYH: “inactive”; YCLELIGSLTHALPVKSLLV: “inactive”.
For NRSTKTMSYWPLVRNLLT, the amyloid nucleation score was 1.51 ± 0.3.
Consider WMVIHSGADCQCL, for which the amyloid nucleation score came out at 0.605 ± 0.36.
Consider KWGVAFNCSYNGVDNVNFWC, for which the amyloid nucleation score was found to be 6.807 ± 0.058.
Consider NNFEI, for which the amyloid nucleation score is -0.672 ± 0.6.
In turn, HYRGSENGVEPSFLYGVSLL registered an amyloid nucleation score of 0.079 ± 0.49.
Consider YFTWQHLRNSRMWV, for which the amyloid nucleation score was determined as 3.34 ± 0.11.
As for LVLYGFYVTSDLRWSLSWKM, the figure is 0.766 ± 0.2.
As to HATVHSSRCHSYHPGL, the amyloid nucleation score was found to be 6.707 ± 0.054.
Next, KYFTVTDVSLY: 5.911 ± 0.028; LFLVTVFRCVFFSQGI: -1.9 ± 1.1.
As to WLFSMRGGDAPKSKRRSIHH, the amyloid nucleation score was 4.96 ± 0.1.
For SMCWNL, the amyloid nucleation score came to 0.17 ± 0.39.
Substance PRRNWMLVCTIIFVWNEKEY displayed an amyloid nucleation score of 0.034 ± 1.1.
ANDPCGVKASRLYVLVSPRV registered an amyloid nucleation score of 0.707 ± 0.19.
NCKYVVTMMLTSGLCAENIW gave an amyloid nucleation score of -0.81 ± 1.
On to FIKDKKSPSCCAN, for which the amyloid nucleation score is -0.866 ± 0.4.
NGHFCWPFFMARHMELREE displayed an amyloid nucleation score of -0.013 ± 0.56.
Regarding FVCMIILS, the amyloid nucleation score was found to be 4.89 ± 0.064.
The substance MKLNVWGFFDGKQRLMESAA came in with an amyloid nucleation score of -1.2 ± 1.1.
Take CWRRDNNRGCARRSGVAPAK: the amyloid nucleation score came to 0.495 ± 0.24.
Consider LCVVY, for which the amyloid nucleation score is -0.237 ± 0.35.
HFTTLGILLRCRGLSVLPKV came in with an amyloid nucleation score of -0.329 ± 0.39.
For the substance VFDGVSSGTCHLCAAWSWDG, the amyloid nucleation score came to 1.56 ± 0.14.
FRLRVRTVRQNCLYHWGSVE: the amyloid nucleation score was 0.024 ± 0.56.
As to YDPDFSGYCYFAIILYIIFS, the amyloid nucleation score is -1.5 ± 0.62.
With TIFFRCHWIRGLLVHLMF, the amyloid nucleation score result is “inactive”.
As for SEAEVSFWAFPEEYIEHKYM, the amyloid nucleation score result is “inactive”.
SYTNLGPAGCVALSKYSVIR: the amyloid nucleation score was -1.18 ± 1.1.
On to RASVYCFLEHG, for which the amyloid nucleation score is 3.42 ± 0.049.
As to VSDLRRMKDGC, the amyloid nucleation score entry was “inactive”.
With KTYEMTDQVIRKPYPL, the amyloid nucleation score was 0.347 ± 0.25.
Regarding WVIFSLVKWCMFSNDVVWVA, the amyloid nucleation score was -0.944 ± 0.34.
For the substance TIYVRQ, the amyloid nucleation score was -1.4 ± 1.1.
Take FPVYRI: the amyloid nucleation score entry is “inactive”.
WFVTNGCFYSLCLTHG returned an amyloid nucleation score of 5.996 ± 0.028.
In turn, IMYLVENMCHDKKFYCSVNL gave an amyloid nucleation score of 4.34 ± 0.087.
LLGCYNYSFRWDSRASASR displayed an amyloid nucleation score of -0.207 ± 0.55.
As for SSFIQGCQDSDTNFGGTSSC, the amyloid nucleation score entry is “inactive”.
Next, SSWKCIIYNPQCEVPTGEQE: -0.289 ± 0.49; YMDSKSNLARTFVRVCGLLG: 0.097 ± 1.1; YKDEGINEPYTVRTVHKLTT: 0.215 ± 0.76.
With AKYIPHAVLKASPTVGIILV, the amyloid nucleation score is -0.54 ± 1.1.
Next, MSLLYGS: 0.523 ± 0.64; SKNYSSWPNPHMIQGLLGSM: -0.735 ± 0.3; TRWSANYPRCWPTMRRCLSL: 0.858 ± 0.51.
Next, VPYSICSKSSRESCRYVWYG: 3.79 ± 0.053.
For GRIVRSVLSSIVCILMSYWM, the amyloid nucleation score amounted to 0.821 ± 0.31.
Take YKRIHSSKFRPDYSHMV: the amyloid nucleation score is -0.403 ± 1.
On to IEYWRSGVMELGHVVSYRDI, for which the amyloid nucleation score was determined as 0.102 ± 0.77.
TMPTY registered an amyloid nucleation score of 0.709 ± 0.66.
As for MRLEWNRGLLCDDSYARTAR, the figure is 0.83 ± 0.41; as for EMYVNFMHVDGDGVPQHDAW, 0.929 ± 0.37; as for NLCDYSSSRLIASRNMHYTA, 4 ± 0.07.
SVYVVGFLCQGYSSLRSLVA came in with an amyloid nucleation score of 4.42 ± 0.089.
Consider RGSSLCYLRKGGFGWQGVVG, for which the amyloid nucleation score stood at 0.733 ± 0.56.
For the substance AVWVRLTFDYWGRCTILGTV, the amyloid nucleation score entry is “inactive”.
On to CFYSNWKQGYDICHVSGDRF, for which the amyloid nucleation score is -0.956 ± 0.78.
As for WYWPCKGTREFKFNLYECSG, the amyloid nucleation score turned out to be 0.517 ± 0.41.
Take LDLICMDLWFWTNTS: the amyloid nucleation score is -0.006 ± 0.4.
As for CVLMAMNFRCLNSTETTLLG, the amyloid nucleation score result was “inactive”.
As for RYYKCVLVWRHQGDSHIRAT, the amyloid nucleation score was -0.412 ± 0.63.
Consider VYTHSGIVY, for which the amyloid nucleation score was -0.82 ± 0.62.
VGRGMHTSYFVGTHTWLSVC: the amyloid nucleation score came to 4.83 ± 0.11.
Take LLQIQCICEGMRQWMLKYYY: the amyloid nucleation score is -0.994 ± 1.1.
For EWSFLMNFSIMYRHFRVLAL, the amyloid nucleation score is -1.35 ± 0.78.
FWDAWSDDRRERWRPCPPRT registered an amyloid nucleation score of 1.45 ± 0.38.
In turn, PFGGSFVSAYSTKRLCHGSH displayed an amyloid nucleation score of -1.2 ± 0.48.
Substance VAWTRCSLHWLQFVLCLSGE yielded an amyloid nucleation score of 5.92 ± 0.041.
With DLRRDQRATTERGRVPVVKH, the amyloid nucleation score was 4.817 ± 0.045.
The substance MYVRYANDFVLLIMQVYRCF had an amyloid nucleation score of -0.488 ± 1.
In turn, RRHEPVPSSK displayed an amyloid nucleation score of 0.398 ± 0.66.
Take MNSFQTRGSVPRRNPKIRAS: the amyloid nucleation score was 0.998 ± 0.74.
Next, TSFLNLIFIYLALKRWLILF: 4.74 ± 0.06; GRLSWFS: -0.624 ± 0.49; LRRVFQISERRNKLWLYEEC: 0.6 ± 0.74.
As for CHRNFITCLYAMYSELVLVL, the amyloid nucleation score worked out at 0.648 ± 0.54.
Substance LSIHLQRTQWYLLFEW had an amyloid nucleation score of 0.01 ± 0.39.
Consider MQMLIYGWSMCFILGAQV, for which the amyloid nucleation score turned out to be 0.479 ± 0.74.
Next, LSSTYRC: -0.24 ± 0.39.
In turn, GGLDLRIMR yielded an amyloid nucleation score of 2.41 ± 0.081.
As for ISGVSDGQMGFWRNEMGQGS, the amyloid nucleation score worked out at 0.28 ± 0.39.
The substance DLAPLLR yielded an amyloid nucleation score of 0.132 ± 0.56.
As to NCWYTFTL, the amyloid nucleation score stood at 1.45 ± 0.12.
With NSVAIVQIVGASAWRGNLL, the amyloid nucleation score was 5.128 ± 0.046.
Next, SVDVKPVTQMTGTMVESTGS: 1.17 ± 0.28.
As for CHSLGVRF, the figure is 3.17 ± 0.093; as for DHVYICSSFAPKSTAMLC, 1.55 ± 0.38; as for AHSATINA, -0.113 ± 0.44.
Substance GASSPGSAMLTVGILEVVVG gave an amyloid nucleation score of -0.375 ± 0.31.
Consider LLTGQALFGRASY, for which the amyloid nucleation score is 0.122 ± 0.37.
FIFGCTCNILFICASSRFLQ came in with an amyloid nucleation score of 2.92 ± 0.11.
Take LSCLK: the amyloid nucleation score was -0.344 ± 0.28.
DTVLAI came in with an amyloid nucleation score of 0.035 ± 0.74.
Regarding WNHGIWS, the amyloid nucleation score was determined as 1.03 ± 0.37.
For LVFRLDFDYVRLCPNLANTL, the amyloid nucleation score is 0.192 ± 1.
Substance PVSALAVFRCLMYSCFCGDL gave an amyloid nucleation score of 6.172 ± 0.035.
As for NLHATWTLDESDFLYQPCLS, the figure is 0.102 ± 0.2; as for FWSCVLSFVYN, 6.1 ± 0.067; as for IPIYFSHMNRHWIKCYVLVC, -0.913 ± 0.36.
Next, WWKAGFSCDTEMSRRPHTLV: -0.168 ± 1.1; IPAKGRNSHSVSCFF: -1.07 ± 0.63.
Regarding IISSYSATEARTMFIKLHCL, the amyloid nucleation score was -0.606 ± 0.54.
As for GFRTFRRGREWSLE, the figure is 0.714 ± 0.34; as for ASMLWLLLDELLKWNDGVNN, 2.04 ± 0.099.
As for TCIFVNDFSMSGWDCMLFY, the figure is 4.4 ± 0.062.
Next, IVLYSGCVYKD: 0.218 ± 0.33; YKACRH: 3.89 ± 0.055; MHMLWETTRWASWCGYLCMG: 4.93 ± 0.059.
The substance HSVLMAGSPTILRHRYRFKG showed an amyloid nucleation score of -0.723 ± 0.44.
SVWTFLTCI had an amyloid nucleation score of 0.906 ± 0.46.
On to CRDLKFYAGTRWGKCCMYSA, for which the amyloid nucleation score was -0.476 ± 0.32.
In turn, NTWEWLLPEMSNLLSWFSEW registered an amyloid nucleation score of 0.014 ± 0.27.
For YRHYIGRTSFTLY, the amyloid nucleation score is -0.232 ± 1.1.
